Measured values from US20060063149A1 (BIOKIT S A, published 2006).

T1: Tp17-HIS monomers (Treponema pallidum, UniProt P29722 23-156)
T1 construct: also called monomeric Tp17-His; not shown: HIS tag from the pET24a vector
T1 sequence: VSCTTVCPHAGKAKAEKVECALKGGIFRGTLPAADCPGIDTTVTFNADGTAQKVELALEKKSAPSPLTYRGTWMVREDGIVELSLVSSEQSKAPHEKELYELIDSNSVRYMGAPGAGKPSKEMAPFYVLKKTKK

T2: Tp17-HIS dimers (Treponema pallidum, UniProt P29722 23-156)
T2 construct: also called dimeric Tp17-His; not shown: HIS tag from the pET24a vector
T2 sequence: T1 sequence

T3: GST-Tp47 fusion protein (Treponema pallidum, UniProt P29723 20-434)
T3 construct: Control protein that shares the GST moiety with GST-Tp17; also called control GST-Tp47 antigen; not shown: GST moiety
T3 sequence: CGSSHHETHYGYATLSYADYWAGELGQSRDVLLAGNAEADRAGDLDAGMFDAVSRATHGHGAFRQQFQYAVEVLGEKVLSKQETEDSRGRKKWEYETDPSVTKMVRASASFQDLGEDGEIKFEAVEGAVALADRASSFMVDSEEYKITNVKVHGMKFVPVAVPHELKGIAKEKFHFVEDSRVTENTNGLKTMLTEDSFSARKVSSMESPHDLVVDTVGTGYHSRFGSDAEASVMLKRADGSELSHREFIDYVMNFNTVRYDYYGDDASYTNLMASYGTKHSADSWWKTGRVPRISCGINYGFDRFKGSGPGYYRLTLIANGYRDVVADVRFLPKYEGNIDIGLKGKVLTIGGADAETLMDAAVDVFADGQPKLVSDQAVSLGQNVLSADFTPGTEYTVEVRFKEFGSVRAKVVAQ

B1: recombinant human lysozyme (Ventria Bioscience) (enzyme)
chain: KVFERCELARTLKRLGMDGYRGISLANWMCLAKWESGYNTRATNYNAGDRSTDYGIFQINSRYWCNDGKTPGAVNACHLSCSALLQDNIADAVACAKRVVRDPQGIRAWVAWRNRCQNRDVRQYVQGCGV
notes: Bought product (159-53LZ-90P); also called huLYS; LyzR
B2: human breast milk lysozyme (enzyme)
chain: B1 chain
notes: also called human lysozyme; huLYS

Key:
[1] = molecular target: T1, Tp17-HIS monomers; experiment: size-exclusion chromatography of complexes formed in vitro
[2] = molecular target: T2, Tp17-HIS dimers; experiment: as above
[3] = molecular target: T3, GST-Tp47 fusion protein; experiment: Far Western blot, lysozyme on PVDF membrane

Binder	binding result [1]	binding result [2]	binding result [3]
B1	binds	binds	
B2			no binding
